Measured values from patent US20200399381A1 (I MAB BIOPHARMA US, published 2020).

T1: human IFNAR-1 protein (form not stated) (human, UniProt P17181 28-436, limits assumed)
T1 construct: bispecific ELISA
T1 sequence (looked up): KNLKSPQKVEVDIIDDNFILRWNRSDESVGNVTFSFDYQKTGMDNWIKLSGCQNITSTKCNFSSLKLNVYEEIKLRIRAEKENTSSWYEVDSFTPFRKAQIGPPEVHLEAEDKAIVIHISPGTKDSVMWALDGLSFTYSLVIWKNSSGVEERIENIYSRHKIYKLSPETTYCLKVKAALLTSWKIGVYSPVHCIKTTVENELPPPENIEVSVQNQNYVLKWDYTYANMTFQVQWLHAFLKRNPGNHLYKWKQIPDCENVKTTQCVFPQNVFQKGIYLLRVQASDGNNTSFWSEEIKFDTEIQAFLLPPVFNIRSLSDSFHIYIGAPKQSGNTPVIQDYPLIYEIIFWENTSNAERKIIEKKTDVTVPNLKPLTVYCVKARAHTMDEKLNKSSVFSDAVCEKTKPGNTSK


Molecular target: T1, human IFNAR-1 protein (form not stated)
Assay: affinity ranking of expressed humanized 8G11 IgGs (method not named)

| Binder | Kd [nM] | koff [s⁻¹] | kon [M⁻¹ s⁻¹] |
| --- | --- | --- | --- |
| 8G11 humanized VH3 + VL1 (antibody, V domains shown, Humanized IgG expressed in HEK293; also called VH3 + VL1 (8G11)) VH: QVQLVQSGAEVVKPGASVKVSCKGSGFNIKDYYMHWVKQAPGQGLEWIGRIDPEDAETKYAPKFQGRVTITADTSTSTVYLELSSLRSEDTAVYYCARGGNFYVMDYWGQGTLVTVSS VL: DIQLTQSPSFLSASVGDRVTITCKASQNVGTNVVWYQQKPGKAPKLLIYSASYRVSGVPSRFSGSGSGTEFTLTISSLQPEDFATYYCQQKNNYPYTFGQGTKLEIK | 0.413 | 0.000106 | 256000 |
| 8G11 humanized VH3 + VL4 (antibody, V domains shown, Humanized IgG expressed in HEK293; also called VH3 + VL4 (8G11)) VH: QVQLVQSGAEVVKPGASVKVSCKGSGFNIKDYYMHWVKQAPGQGLEWIGRIDPEDAETKYAPKFQGRVTITADTSTSTVYLELSSLRSEDTAVYYCARGGNFYVMDYWGQGTLVTVSS VL: DIQMTQSPSFLSTSVGDRVTVTCKASQNVGTNVVWYQQKPGKSPKVLIYSASYRVSGVPSRFSGSGSGTEFTLIISSVQPEDFATYFCQQKNNYPYTFGQGTKLEIK | 0.401 | 0.000113 | 281000 |
| 8G11 humanized VH4 + VL1 (antibody, V domains shown, Humanized IgG expressed in HEK293; also called VH4 + VL1 (8G11)) VH: QVQLVQSGAEVVKPGASVKLSCKGSGFNIKDYYMHWVKQAPGQGLEWIGRIDPEDAETKYAPKFQGRATITADTSTSTAYLELSSLRSEDTAVYYCARGGNFYVMDYWGQGTLVTVSS VL: DIQLTQSPSFLSASVGDRVTITCKASQNVGTNVVWYQQKPGKAPKLLIYSASYRVSGVPSRFSGSGSGTEFTLTISSLQPEDFATYYCQQKNNYPYTFGQGTKLEIK | 0.489 | 9.94e-05 | 203000 |

These reach a lower Kd. Values come first.

| Kd [nM] | koff [s⁻¹] | kon [M⁻¹ s⁻¹] | Binder |
| --- | --- | --- | --- |
| 0.332 | 9.69e-05 | 292000 | 8G11 humanized VH4 + VL2 (antibody, V domains shown, Humanized IgG expressed in HEK293; also called VH4 + VL2 (8G11)) VH: QVQLVQSGAEVVKPGASVKLSCKGSGFNIKDYYMHWVKQAPGQGLEWIGRIDPEDAETKYAPKFQGRATITADTSTSTAYLELSSLRSEDTAVYYCARGGNFYVMDYWGQGTLVTVSS VL: DIQLTQSPSFLSTSVGDRVTITCKASQNVGTNVVWYQQKPGKSPKVLIYSASYRVSGVPSRFSGSGSGTEFTLIISSLQPEDFATYYCQQKNNYPYTFGQGTKLEIK |
| 0.372 | 0.000105 | 283000 | 8G11 humanized VH4 + VL4 (antibody, V domains shown, Humanized IgG expressed in HEK293; also called VH4 + VL4 (8G11)) VH: QVQLVQSGAEVVKPGASVKLSCKGSGFNIKDYYMHWVKQAPGQGLEWIGRIDPEDAETKYAPKFQGRATITADTSTSTAYLELSSLRSEDTAVYYCARGGNFYVMDYWGQGTLVTVSS VL: DIQMTQSPSFLSTSVGDRVTVTCKASQNVGTNVVWYQQKPGKSPKVLIYSASYRVSGVPSRFSGSGSGTEFTLIISSVQPEDFATYFCQQKNNYPYTFGQGTKLEIK |
| 0.389 | 0.000111 | 284000 | 8G11 humanized VH3 + VL2 (antibody, V domains shown, Humanized IgG expressed in HEK293; also called VH3 + VL2 (8G11)) VH: QVQLVQSGAEVVKPGASVKVSCKGSGFNIKDYYMHWVKQAPGQGLEWIGRIDPEDAETKYAPKFQGRVTITADTSTSTVYLELSSLRSEDTAVYYCARGGNFYVMDYWGQGTLVTVSS VL: DIQLTQSPSFLSTSVGDRVTITCKASQNVGTNVVWYQQKPGKSPKVLIYSASYRVSGVPSRFSGSGSGTEFTLIISSLQPEDFATYYCQQKNNYPYTFGQGTKLEIK |
